From article PMC11805746 (Discover Nano, 2025) come the findings set out here.

The koff is the rate constant with which the complex falls apart.

The test deals with IsdB point mutant P173A (IsdB^P173A) (Staphylococcus aureus, UniProt Q2FZF0 41-613, P173A). The test is described as follows: atomic force spectroscopy.

B1: methemoglobin (oxidized human hemoglobin A) (complex)
chain 1: not shown
chain 2: not shown
In the case of B1, the off-rate (koff) turned out to be 0.0025 s⁻¹.
